Laboratory results as given in patent publication US20060030015A1 (published 2006).
Positions count from the first letter of the chain named.

T1: OVA (UniProt P01012 2-386)
T1 sequence (looked up): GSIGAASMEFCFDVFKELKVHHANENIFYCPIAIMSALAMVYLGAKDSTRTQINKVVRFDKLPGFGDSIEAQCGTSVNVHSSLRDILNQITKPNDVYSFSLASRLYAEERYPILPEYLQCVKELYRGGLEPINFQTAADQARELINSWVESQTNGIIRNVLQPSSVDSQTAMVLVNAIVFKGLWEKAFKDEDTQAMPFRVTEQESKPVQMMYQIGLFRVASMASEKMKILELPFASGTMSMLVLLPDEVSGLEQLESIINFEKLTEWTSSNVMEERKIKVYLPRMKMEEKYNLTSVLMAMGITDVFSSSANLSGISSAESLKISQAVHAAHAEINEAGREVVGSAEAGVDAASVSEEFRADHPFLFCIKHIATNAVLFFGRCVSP

B1: light chain of ECL2B-2 (ECL2B-2-L) (protein)
VL: DVLMTQTPLSLPVSLGDQASISCRSSQSIVHSNGNTYLEWYLQKPGQSPKLLIYKVSNRFSGVPDRFSGSGSGTDFTLKINRVAAEDLGVYYCFQGSHVPWTFGGGTKLEIKRA
B2: light chain of ECL2B-4 (ECL2B-4-L) (protein)
VL: B1 VL with L51F, N81S, A84E, A85T
B3: monoclonal antibody ECL2B-2 (antibody, V domains shown)
VH: DVKLVESGGGLVKPGGSLKLSCAASGFTFSRYTMSWVRQTPEKRLEWVATISSGGSYTYYPDSVKGRFTISRDIAKNTLYLQMSSLKSEDTALYYCTREGGYGAFASWGQGTLVTVS
VL: DVLMTQTPLSLPVSLGDQASISCRSSQSIVHSNGNTYLEWYLQKPGQSPKLLIYKVSNRFSGVPDRFSGSGSGTDFTLKINRVAAEDLGVYYCFQGSHVPWTFGGGTKLEIKR
notes: also called intact monoclonal antibody ECL2B-2
B4: monoclonal antibody ECL2B-3 (antibody, V domains shown)
VH: QIQLVQSGPELKKPGETVKISCKASGYTFTNYGMNWVKQAPGKGLEWMGWINTYTGEPTYAGDFMGRSVFSLETSASTAYLQINNLENKDTATYICARSGSPYAMDYWGQGTSVTVS
VL: DIALTQSPASLAVSLGQRATISCKASQSVDYDGDSYMNWFQQKPGQPPKLLIYAASNLESGIPGRFSGSGSGTDFTLNIHPVEEEDIATYYCQQSYEDPFTFGSGTILDIKR
B5: heavy chain of i41SL1-2 antibody (i41SL1-2-H) (protein)
VH: QVQLQHSGAELVRPGSSVKVSCKALGYTSTDYEIHWVKQTPVRGLEWIGAIHPGSDVIVYNQKFKGTATLTADKSSSTAYMELRSLTSEDSAVYYCTREGGSVDYVWGQGTLVTVSA
B6: light chain of i41SL1-2 antibody (i41SL1-2-L) (protein)
VL: DIVMTQTQLTLTINIGQPASISCKSSQSLLDSDGKTYLNWLFQRPGQSPKRLIYLVSKLDSGVPDRFTGSGSGTDFTLKISRVEAEDLGVYYCWQGTHFPLTFGAGTKLELRRA

What was measured:
[1] = target: ECL2B peptide (…), partial peptide of CCR-5 (human); test: cell-based or functional assay
ECL2B peptide (…), partial peptide of CCR-5 (human), sequence (peptide, as listed by the source): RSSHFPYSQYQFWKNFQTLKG

[2] = target: ECL2B peptide (sequence No.38) as named in Experiment 3-9 (human); test: cell-based or functional assay
[3] = target: peptide TP41-1 of a retention region of gp41 (HIV-1) (…) (HIV-1); test: cell-based or functional assay
HSA = HSA (human, UniProt P02768 25-609); test: ELISA (immunoassay of Experiment 3-3), absorbance at 405 nm
HSA, sequence (P02768 25-609): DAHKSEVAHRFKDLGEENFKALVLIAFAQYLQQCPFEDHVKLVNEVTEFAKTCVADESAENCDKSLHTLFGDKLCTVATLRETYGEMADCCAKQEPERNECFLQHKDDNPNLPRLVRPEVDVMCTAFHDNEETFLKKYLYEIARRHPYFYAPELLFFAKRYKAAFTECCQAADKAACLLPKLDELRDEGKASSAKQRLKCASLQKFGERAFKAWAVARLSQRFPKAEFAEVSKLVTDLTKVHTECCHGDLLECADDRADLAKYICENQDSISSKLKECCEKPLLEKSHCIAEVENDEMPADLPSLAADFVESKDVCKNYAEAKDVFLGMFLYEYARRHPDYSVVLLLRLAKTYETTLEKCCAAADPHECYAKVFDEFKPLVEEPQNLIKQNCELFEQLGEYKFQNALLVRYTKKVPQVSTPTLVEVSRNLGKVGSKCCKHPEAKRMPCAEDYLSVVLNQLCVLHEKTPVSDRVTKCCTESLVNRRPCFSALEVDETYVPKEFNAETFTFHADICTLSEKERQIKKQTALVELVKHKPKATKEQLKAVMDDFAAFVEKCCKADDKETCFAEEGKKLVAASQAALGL
Excerpt: (§1) The blocking was applied with 2% gelatin at room temperature.

OVA = target: T1, OVA; test: as above
Excerpt: as §1

[4] = target: CDR1 antigen peptide (…), synthetic peptide of CDR 1 of the light chain of antibody 41S-2; test: cell-based or functional assay

| Binder | binding result (HSA) | binding result (OVA) | Km [4] | kcat [4] | kcat/Km [4] | further results |
| --- | --- | --- | --- | --- | --- | --- |
| B1 |  |  |  |  |  | time until the ECL2B peptide disappeared (RP-HPLC) [1]: 90 h |
| B2 |  |  |  |  |  | Km [2]: 35 µM; Vmax [2]: 0.31 µM/min; kcat [2]: 0.012 s⁻¹; kcat/Km [2]: 367 M⁻¹ s⁻¹; Km [3]: 12.5 µM; Vmax [3]: 0.0624 µM/min; kcat [3]: 0.00267 s⁻¹; kcat/Km [3]: 208 M⁻¹ s⁻¹ |
| B3 | no binding | no binding |  |  |  |  |
| B4 | no binding | no binding |  |  |  |  |
| B5 |  |  | 13 µM | 0.0103 s⁻¹ | 812 M⁻¹ s⁻¹ |  |
| B6 |  |  | 2 µM | 0.0102 s⁻¹ | 5170 M⁻¹ s⁻¹ |  |
